Experimental data: US20240240209A1, “SYNTHESIS OF ENANTIOPURE CIS-A-IRONE FROM A RENEWABLE CARBON SOURCE” (Agency for Science, Technology and Research, priority 2021, published 2024)

B1: E192S (protein)
chain: MPQEARTPQQQVTADEVGDWYDKFGEVYHLTLGESVHCGLWFPPDAPVPQDMELVTMSSQAQDRFTDYLIETLDPKAGQHLLDIGCGTGRPALKAARQRGIAVTGVAVSKEQIAAANRLAAGHGLTERLTFEVADAMRLPYEDESFDCAWAIESLDHMDRAKALGEAWRVLKPGGDLLVAEEVVTEELTEPSTALFETLFALNVPPRLGEFFDIVSGAGFHTLSLKDLSADLAMTMNVFALGVYSRRAEFTERFGAEFVDGLLAGLGSAQETVIRKTRFFMATLRKPAV
modifications: Modified from pMT1
B2: M137D (protein)
chain: MPQEARTPQQQVTADEVGDWYDKFGEVYHLTLGESVHCGLWFPPDAPVPQDMELVTMSSQAQDRFTDYLIETLDPKAGQHLLDIGCGTGRPALKAARQRGIAVTGVAVSKEQIAAANRLAAGHGLTERLTFEVADADRLPYEDESFDCAWAIESLDHMDRAKALGEAWRVLKPGGDLLVAEEVVTEELTEPETALFETLFALNVPPRLGEFFDIVSGAGFHTLSLKDLSADLAMTMNVFALGVYSRRAEFTERFGAEFVDGLLAGLGSAQETVIRKTRFFMATLRKPAV
modifications: Modified from pMT1
B3: L195V (protein)
chain: MPQEARTPQQQVTADEVGDWYDKFGEVYHLTLGESVHCGLWFPPDAPVPQDMELVTMSSQAQDRFTDYLIETLDPKAGQHLLDIGCGTGRPALKAARQRGIAVTGVAVSKEQIAAANRLAAGHGLTERLTFEVADAMRLPYEDESFDCAWAIESLDHMDRAKALGEAWRVLKPGGDLLVAEEVVTEELTEPETAVFETLFALNVPPRLGEFFDIVSGAGFHTLSLKDLSADLAMTMNVFALGVYSRRAEFTERFGAEFVDGLLAGLGSAQETVIRKTRFFMATLRKPAV
modifications: Modified from pMT1
B4: T13G (protein)
chain: MPQEARTPQQQVGADEVGDWYDKFGEVYHLTLGESVHCGLWFPPDAPVPQDMELVTMSSQAQDRFTDYLIETLDPKAGQHLLDIGCGTGRPALKAARQRGIAVTGVAVSKEQIAAANRLAAGHGLTERLTFEVADAMRLPYEDESFDCAWAIESLDHMDRAKALGEAWRVLKPGGDLLVAEEVVTEELTEPETALFETLFALNVPPRLGEFFDIVSGAGFHTLSLKDLSADLAMTMNVFALGVYSRRAEFTERFGAEFVDGLLAGLGSAQETVIRKTRFFMATLRKPAV
modifications: Modified from pMT1
B5: L195I (protein)
chain: MPQEARTPQQQVTADEVGDWYDKFGEVYHLTLGESVHCGLWFPPDAPVPQDMELVTMSSQAQDRFTDYLIETLDPKAGQHLLDIGCGTGRPALKAARQRGIAVTGVAVSKEQIAAANRLAAGHGLTERLTFEVADAMRLPYEDESFDCAWAIESLDHMDRAKALGEAWRVLKPGGDLLVAEEVVTEELTEPETAIFETLFALNVPPRLGEFFDIVSGAGFHTLSLKDLSADLAMTMNVFALGVYSRRAEFTERFGAEFVDGLLAGLGSAQETVIRKTRFFMATLRKPAV
modifications: Modified from pMT1
B6: M137G (protein)
chain: MPQEARTPQQQVTADEVGDWYDKFGEVYHLTLGESVHCGLWFPPDAPVPQDMELVTMSSQAQDRFTDYLIETLDPKAGQHLLDIGCGTGRPALKAARQRGIAVTGVAVSKEQIAAANRLAAGHGLTERLTFEVADAGRLPYEDESFDCAWAIESLDHMDRAKALGEAWRVLKPGGDLLVAEEVVTEELTEPETALFETLFALNVPPRLGEFFDIVSGAGFHTLSLKDLSADLAMTMNVFALGVYSRRAEFTERFGAEFVDGLLAGLGSAQETVIRKTRFFMATLRKPAV
modifications: Modified from pMT1
B7: M137A (protein)
chain: MPQEARTPQQQVTADEVGDWYDKFGEVYHLTLGESVHCGLWFPPDAPVPQDMELVTMSSQAQDRFTDYLIETLDPKAGQHLLDIGCGTGRPALKAARQRGIAVTGVAVSKEQIAAANRLAAGHGLTERLTFEVADAARLPYEDESFDCAWAIESLDHMDRAKALGEAWRVLKPGGDLLVAEEVVTEELTEPETALFETLFALNVPPRLGEFFDIVSGAGFHTLSLKDLSADLAMTMNVFALGVYSRRAEFTERFGAEFVDGLLAGLGSAQETVIRKTRFFMATLRKPAV
modifications: Modified from pMT1
B8: A14M (protein)
chain: MPQEARTPQQQVTMDEVGDWYDKFGEVYHLTLGESVHCGLWFPPDAPVPQDMELVTMSSQAQDRFTDYLIETLDPKAGQHLLDIGCGTGRPALKAARQRGIAVTGVAVSKEQIAAANRLAAGHGLTERLTFEVADAMRLPYEDESFDCAWAIESLDHMDRAKALGEAWRVLKPGGDLLVAEEVVTEELTEPETALFETLFALNVPPRLGEFFDIVSGAGFHTLSLKDLSADLAMTMNVFALGVYSRRAEFTERFGAEFVDGLLAGLGSAQETVIRKTRFFMATLRKPAV
modifications: Modified from pMT1
B9: S268K (protein)
chain: MPQEARTPQQQVTADEVGDWYDKFGEVYHLTLGESVHCGLWFPPDAPVPQDMELVTMSSQAQDRFTDYLIETLDPKAGQHLLDIGCGTGRPALKAARQRGIAVTGVAVSKEQIAAANRLAAGHGLTERLTFEVADAMRLPYEDESFDCAWAIESLDHMDRAKALGEAWRVLKPGGDLLVAEEVVTEELTEPETALFETLFALNVPPRLGEFFDIVSGAGFHTLSLKDLSADLAMTMNVFALGVYSRRAEFTERFGAEFVDGLLAGLGKAQETVIRKTRFFMATLRKPAV
modifications: Modified from pMT1
B10: L129V (protein)
chain: MPQEARTPQQQVTADEVGDWYDKFGEVYHLTLGESVHCGLWFPPDAPVPQDMELVTMSSQAQDRFTDYLIETLDPKAGQHLLDIGCGTGRPALKAARQRGIAVTGVAVSKEQIAAANRLAAGHGLTERVTFEVADAMRLPYEDESFDCAWAIESLDHMDRAKALGEAWRVLKPGGDLLVAEEVVTEELTEPETALFETLFALNVPPRLGEFFDIVSGAGFHTLSLKDLSADLAMTMNVFALGVYSRRAEFTERFGAEFVDGLLAGLGSAQETVIRKTRFFMATLRKPAV
modifications: Modified from pMT1
B11: A14R (protein)
chain: MPQEARTPQQQVTRDEVGDWYDKFGEVYHLTLGESVHCGLWFPPDAPVPQDMELVTMSSQAQDRFTDYLIETLDPKAGQHLLDIGCGTGRPALKAARQRGIAVTGVAVSKEQIAAANRLAAGHGLTERLTFEVADAMRLPYEDESFDCAWAIESLDHMDRAKALGEAWRVLKPGGDLLVAEEVVTEELTEPETALFETLFALNVPPRLGEFFDIVSGAGFHTLSLKDLSADLAMTMNVFALGVYSRRAEFTERFGAEFVDGLLAGLGSAQETVIRKTRFFMATLRKPAV
modifications: Modified from pMT1
B12: T13A (protein)
chain: MPQEARTPQQQVAADEVGDWYDKFGEVYHLTLGESVHCGLWFPPDAPVPQDMELVTMSSQAQDRFTDYLIETLDPKAGQHLLDIGCGTGRPALKAARQRGIAVTGVAVSKEQIAAANRLAAGHGLTERLTFEVADAMRLPYEDESFDCAWAIESLDHMDRAKALGEAWRVLKPGGDLLVAEEVVTEELTEPETALFETLFALNVPPRLGEFFDIVSGAGFHTLSLKDLSADLAMTMNVFALGVYSRRAEFTERFGAEFVDGLLAGLGSAQETVIRKTRFFMATLRKPAV
modifications: Modified from pMT1

Assay: In-vivo cis-α-irone production screening of pMT7 and pMT12 mutants
Format: cell-based, Escherichia coli
Settings: mutations made to pMT12; normalized to pMT12 (=1)
Description: Q60 was identified as another possible mutation site.
FIGS. 24a and 24b show the in-vivo and in-vitro cis-α-irone production of other possible single mutations to pMT12. The in-vitro results in FIG. 24b validate the mutations and in-vivo results in FIG. 24a. The mutations in FIG. 24 include Q11H (SEQ ID No. 23), V12R (SEQ ID No. 24), A95C (SEQ ID No. 25), H123Q (SEQ ID No. 26), E127T (SEQ ID No. 27), M137T (SEQ ID No. 28), D176V (SEQ ID No. 29), D176Y (SEQ ID No. 30). P191S (SEQ ID No. 31), P191V (SEQ ID No. 32), F212L (SEQ ID No. 33), S268H (SEQ ID No. 34), AND T272A (SEQ ID No. 35). The screening results in FIGS. 24 and 25 are semi-quantitative to identify beneficial mutants that give greater than one-fold change of irone production as compared to pMT12.
FIGS. 25a to 25c (and Table 4) show the in-vivo testing results of other possible mutations that may be made to pMT12 to improve its in-vivo production of cis-α-irone. FIGS. 25a to 25c each include two dotted lines to account for a 10% error bar to show the normalized fold change of 0.9 and 1.1.
The four plasmids were transformed into E. coli BL21 (DE3), ΔaroA, ΔaroB, ΔaroC, ΔserC or E. coli BL21 (DE3), ΔaroA, ΔaroB, ΔaroC, ΔserC, ΔmetJ strains and plated on Agar plate containing LB media (10 g, tryptone. 5 g, yeast extract. 10 g, NaCl) supplemented with appropriate antibiotics (100 mg/L ampicillin, 34 mg/L chloramphenicol, 50 mg/L kanamycin, and 100 mg/L spectinomycin). One colony was picked and inoculate into LB media with antibiotics. 1% of overnight culture was inoculated into 1 ml fresh auto-inducing chemically defined media. The chemical media contains carbon source solution: 0.5 g/L glucose, 10 g/L glycerol; inducer: 30 mM lactose and base media: 2 g/L ammonium sulfate, 4.2 g/L KH2PO4, 11.24 g/L K2HPO4, 1.7 g/L citric acid, 0.5 g/L MgSO4, and 10 mL/L trace element solution. The trace element solution (100×) contained 0.25 g/L CoCl2·6H2O, 1.5 g/L MnSO4·4H2O, 0.15 g/L CuSO4·2H2O, 0.3 g/L H3BO3, 0.25 g/L Na2MoO4·2H2O, 0.8 g/L Zn(CH3COO)2, 5 g/L Fe(III) citrate, and 0.84 g/L ethylenediaminetetra-acetic acid (EDTA) at pH 8.0. The culture was grown at 28° C. for 3 days and the products were extracted with 1 ml hexane for GCMS analysis. An example of a fed-batch process for α-ionone Is briefly described, overnight culture was inoculated into 2 L chemical media comprising the base media and 5 g/L glucose, at 37° C. and 30% DO. pH was controlled at 7 with base solution (14% ammonia and 0.5 M NaOH). Feed media (500 g/L glucose and 5 g/L MgSO4) was added into bioreactor once OD600 reached 5, at a rate of 7.15-25.75 g/h glucose for about 4-5 h until OD600 reached ˜30-40. Subsequently, 0.1 mM IPTG was added to induce the production, and feeding rate was kept at a constant rate of 10 g/h glucose, and the temperature was reduced to 30° C. DO was adjusted to 2% or 10%. Feeding was stopped at 113 h when 2 L feeding media was finished, but the culture was further incubated for 24 h. To capture the evaporated products, the exhaust was connected to 25 ml sunflower oil.
For B1, the “Fold change in in-vivo cis-α-irone production” value (“Fold change” for short) was 0.97.
With B2 the “Fold change” value was 1.13.
In the case of B3, the “Fold change” value is reported as 1.02.
For B4, the “Fold change” value was 0.91.
In the case of B5, the “Fold change” value is reported as 1.08.
With B6 the “Fold change” value was 1.15.
For B7, the “Fold change” value was 1.15.
With B8 the “Fold change” value was 0.94.
In the case of B9, the “Fold change” value is reported as 1.35.
With B10 the “Fold change” value was 1.03.
In the case of B11, the “Fold change” value is reported as 0.93.
In the case of B12, the “Fold change” value is reported as 0.91.
